These results are taken from patent US20240226230A1.

This assay has as its target phenylalanine and glycine rich nucleoporins (FG-Nups). The assay can be described thus: cell-based or functional assay.

On to “FLAG-KPNB1 H1-8^WT (from UniProt Q14974 1-361)”, for which the cells in which the accumulation of TDP-43 and Nup62 in cytoplasmic GR aggregates is abolished was 60 % of cells.
